Reference: paper PMC5447866 (Oncogene, 2016)

Target: His6-tagged UBR5 recombinant protein (UniProt O95071 1-2799)
Test: pull-down

Sequence of His6-tagged UBR5 recombinant protein (O95071 whole entry): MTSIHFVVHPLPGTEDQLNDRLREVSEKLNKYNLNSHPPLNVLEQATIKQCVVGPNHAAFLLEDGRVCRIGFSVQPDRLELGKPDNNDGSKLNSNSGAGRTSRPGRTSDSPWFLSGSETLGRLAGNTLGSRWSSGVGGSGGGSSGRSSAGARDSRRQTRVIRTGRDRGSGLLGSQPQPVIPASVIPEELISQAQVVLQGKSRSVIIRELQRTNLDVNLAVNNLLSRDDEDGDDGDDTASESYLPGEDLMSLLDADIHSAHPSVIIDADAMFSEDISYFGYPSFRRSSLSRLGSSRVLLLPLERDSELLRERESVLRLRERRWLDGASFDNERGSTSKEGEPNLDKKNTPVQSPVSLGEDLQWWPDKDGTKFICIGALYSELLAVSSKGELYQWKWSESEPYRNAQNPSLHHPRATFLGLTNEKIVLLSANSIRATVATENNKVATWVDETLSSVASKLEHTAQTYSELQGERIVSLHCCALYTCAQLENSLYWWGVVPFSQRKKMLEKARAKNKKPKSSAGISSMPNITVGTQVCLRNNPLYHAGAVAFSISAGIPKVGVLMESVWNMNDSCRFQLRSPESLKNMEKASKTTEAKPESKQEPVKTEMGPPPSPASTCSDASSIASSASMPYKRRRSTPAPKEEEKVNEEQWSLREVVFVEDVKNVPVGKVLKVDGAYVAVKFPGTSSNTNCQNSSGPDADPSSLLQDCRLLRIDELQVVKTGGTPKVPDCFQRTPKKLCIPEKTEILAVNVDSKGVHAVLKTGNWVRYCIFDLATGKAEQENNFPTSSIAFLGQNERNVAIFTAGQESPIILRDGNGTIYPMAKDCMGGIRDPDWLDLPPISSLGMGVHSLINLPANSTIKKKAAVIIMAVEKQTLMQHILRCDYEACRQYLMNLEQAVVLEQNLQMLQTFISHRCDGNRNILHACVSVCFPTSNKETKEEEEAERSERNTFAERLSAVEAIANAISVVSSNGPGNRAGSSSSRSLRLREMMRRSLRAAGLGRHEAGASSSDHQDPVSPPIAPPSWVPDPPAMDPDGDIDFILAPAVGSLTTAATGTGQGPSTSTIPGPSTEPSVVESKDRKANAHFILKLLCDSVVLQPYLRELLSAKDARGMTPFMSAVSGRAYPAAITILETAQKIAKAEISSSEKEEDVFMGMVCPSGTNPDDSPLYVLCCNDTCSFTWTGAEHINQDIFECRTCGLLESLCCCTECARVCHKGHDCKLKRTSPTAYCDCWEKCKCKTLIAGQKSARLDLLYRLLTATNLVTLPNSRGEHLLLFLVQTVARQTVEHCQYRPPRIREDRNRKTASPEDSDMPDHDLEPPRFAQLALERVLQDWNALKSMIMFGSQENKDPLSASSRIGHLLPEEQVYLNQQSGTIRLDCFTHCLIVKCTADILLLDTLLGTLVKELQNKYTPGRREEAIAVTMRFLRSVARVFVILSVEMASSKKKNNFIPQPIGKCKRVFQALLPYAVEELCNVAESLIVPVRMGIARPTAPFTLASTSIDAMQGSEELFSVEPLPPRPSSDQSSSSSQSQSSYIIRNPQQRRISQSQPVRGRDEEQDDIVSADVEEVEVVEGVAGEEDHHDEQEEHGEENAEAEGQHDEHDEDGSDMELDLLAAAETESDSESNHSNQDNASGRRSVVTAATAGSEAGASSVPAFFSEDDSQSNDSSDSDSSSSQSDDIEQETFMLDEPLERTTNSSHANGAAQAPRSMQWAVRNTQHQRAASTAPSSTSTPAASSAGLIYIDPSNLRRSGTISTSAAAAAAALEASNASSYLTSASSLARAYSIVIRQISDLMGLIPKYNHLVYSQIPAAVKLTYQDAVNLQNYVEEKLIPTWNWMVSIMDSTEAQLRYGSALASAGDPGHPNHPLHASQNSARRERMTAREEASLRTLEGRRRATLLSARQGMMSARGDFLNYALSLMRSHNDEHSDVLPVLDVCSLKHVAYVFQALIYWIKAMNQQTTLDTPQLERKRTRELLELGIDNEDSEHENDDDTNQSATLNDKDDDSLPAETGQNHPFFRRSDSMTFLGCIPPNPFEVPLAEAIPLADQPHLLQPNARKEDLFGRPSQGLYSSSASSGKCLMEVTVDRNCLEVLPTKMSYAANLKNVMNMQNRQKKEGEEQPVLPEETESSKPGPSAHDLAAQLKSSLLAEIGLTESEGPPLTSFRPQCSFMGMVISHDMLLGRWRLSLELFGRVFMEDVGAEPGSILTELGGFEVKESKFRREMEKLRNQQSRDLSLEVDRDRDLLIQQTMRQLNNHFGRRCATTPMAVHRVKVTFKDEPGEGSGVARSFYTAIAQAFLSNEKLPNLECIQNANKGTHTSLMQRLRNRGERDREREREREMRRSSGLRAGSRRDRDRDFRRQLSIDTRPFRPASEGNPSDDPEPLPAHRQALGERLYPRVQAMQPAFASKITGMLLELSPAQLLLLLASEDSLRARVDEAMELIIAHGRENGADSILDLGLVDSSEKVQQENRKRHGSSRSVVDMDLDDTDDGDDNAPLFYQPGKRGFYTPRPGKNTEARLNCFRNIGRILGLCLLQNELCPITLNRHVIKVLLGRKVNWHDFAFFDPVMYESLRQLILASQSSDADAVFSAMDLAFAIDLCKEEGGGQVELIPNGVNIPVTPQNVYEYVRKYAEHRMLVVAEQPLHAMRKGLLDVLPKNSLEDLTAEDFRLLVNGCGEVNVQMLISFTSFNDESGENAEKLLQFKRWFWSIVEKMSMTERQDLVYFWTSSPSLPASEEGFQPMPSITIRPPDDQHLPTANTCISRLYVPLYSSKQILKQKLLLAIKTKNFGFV

B1: GST-tagged MOAP-1 recombinant protein (natural protein, UniProt Q96BY2 1-351, looked up)
chain: MTLRLLEDWCRGMDMNPRKALLIAGISQSCSVAEIEEALQAGLAPLGEYRLLGRMFRRDENRKVALVGLTAETSHALVPKEIPGKGGIWRVIFKPPDPDNTFLSRLNEFLAGEGMTVGELSRALGHENGSLDPEQGMIPEMWAPMLAQALEALQPALQCLKYKKLRVFSGRESPEPGEEEFGRWMFHTTQMIKAWQVPDVEKRRRLLESLRGPALDVIRVLKINNPLITVDECLQALEEVFGVTDNPRELQVKYLTTYQKDEEKLSAYVLRLEPLLQKLVQRGAIERDAVNQARLDQVIAGAVHKTIRRELNLPEDGPAPGFLQLLVLIKDYEAAEEEEALLQAILEGNFT
  binding result: binds
